# Values of other authors in PMC10136230.
# Target: AGE-albumin (UniProt P02768)
# Experiment: 125I-labeled ligand binding
substance,measurement,value
RAGE (from UniProt Q15109),Kd,0.2 µM
